Laboratory results taken from patent US20250179205A1 (Hoffmann-La Roche, published 2025).
Where a chain is given by its changes, count along the chain named. Blank lines part the entries; values can stand above or below the binder they belong to.

How the values were obtained:
[1] = biological target: T1, His-tagged human dimeric FAP (recombinant FAP_ECD) (human, UniProt Q12884 27-760); assay: SPR (Biacore T200), His-tagged dimeric huFAP ECD captured by anti-His, antibody as analyte, 1:1 fit (avidity)
T1 construct: also called hu FAP ectodomain + poly-lys-tag + his6-tag
Method: The capacity of the bispecific constructs to bind human FAP was assessed by surface plasmon resonance (SPR). All SPR experiments were performed on a BIACORE® T200 (BIACORE®) at 25° C. with HBS-EP as running buffer (0.01 M HEPES pH 7.4, 0.15 M NaCl, 3 mM EDTA, 0.005% Surfactant P20, (BIACORE®).
His-tagged human dimeric FAP (recombinant FAP_ECD) was captured on a CM5 chip (GE Healthcare) immobilized with anti-His antibody (Qiagen Cat. No. 34660) by injection of 500 nM huFAP for 60 s at a flow rate of 10 uL/min, 10 nM murine FAP for 20 s at a flow rate of 20 uL/min and 10 nM cynoFAP for 20 s at a flow rate of 20 uL/min. Immobilization levels for the anti-His antibody of up to 18000 resonance units (RU) were used. Following the capture step, the bispecific antibodies as well as control molecules were immediately passed over the chip surface at a concentration ranging from 0.78-100 nM with a flow rate of […] for 280 s and a dissociation phase of 180 s. Bulk refractive index differences were corrected for by subtracting the response obtained in a reference flow cell, where no FAP was immobilized. Avidity was determined using the Langmuir 1:1 curve fitting. For bivalent binding the same 1:1 fitting was used leading to an apparent KD value.

[2] = biological target: T2, mouse fibroblast activation protein (mFAP) (mouse, UniProt P97321 1-761); assay: flow cytometry on NIH/3T3-mFAP cells (3T3_mFAP), PE-labelled anti-human IgG Fcgamma F(ab')2 secondary, MFI baseline corrected
T2 construct: expressed on transfected NIH/3T3-mFAP clone 26 cells; also called murine FAP; mouse FAP
Method: (§1) NIH/3T3-huFAP clone 19 and NIH/3T3-mFAP clone 26 were generated by the transfection of the mouse embryonic fibroblast NIH/3T3 cell line (ATCC CRL-1658) with the expression vector pETR4921 to express under 1.5 μg/mL Puromycin selection huFAP or mFAP, respectively.
(§2) NIH/3T3-huFAP, NIH/3T3-mFAP or NIH/3T3-wt cells were cultured with 1× Dulbecco's Modified Eagle's Medium (DMEM) (Gibco, Cat. No. 42430-025) supplemented with 10% Fetal Bovine Serum (FBS) (life technologies, Cat. No. 16140, Lot No. 1797306A). For the NIH/3T3-huFAP and NIH/3T3-mFAP cells 1.5 μg/mL Puromycin (Gibco, Cat. No. A11138-03) was added to the medium for selection of FAP-expressing cells. NIH/3T3 cells were removed from the plate by using enzyme-free Cell Dissociation Buffer (Gibco, Cat. No. 13151014). 0.3×10⁵ NIH/3T3-huFAP clone 19, NIH/3T3-mFAP clone 26 or NIH/3T3-wt were added in 200 μl of 1×DMEM 10% FBS to each well of a round-bottom 96-well plate (Greiner Bio-One, CELLSTAR®, Cat. No. 650185). Plates were centrifuged 5 minutes at 1700 rpm and supernatants were flicked off. Cells were washed once with 200 μL of 4° C. cold FACS buffer (eBioscience, Cat. No. 00-4222-26). All samples were resuspended in 50 μL/well of 4° C. cold FACS buffer containing the bispecific antigen binding molecules (primary antibody) or isotype control antibody DP47 at the indicated range of concentrations (in duplicates) and incubated for 120 minutes at 4° C. Afterwards the cells were washed three times with 200 μL 4° C. cold FACS buffer. Cells were further stained with 25 μL/well of 4° C. cold secondary antibody solution (1:50 dilution of secondary antibody) containing R-Phycoerythrin (PE) conjugated AffiniPure F(ab′)₂ Fragment Goat Anti-Human IgG, Fcγ Fragment Specific (Jackson ImmunoResearch, Cat. No. 109-116-098) and incubated for 60 minutes at 4° C. in the dark. Cells were washed with 200 μl FACS buffer and resuspended in 85 μL/well FACS-buffer containing 0.2 μg/mL DAPI (Roche, Cat. No. 10236276001) and acquired the same day using 5-laser LSR-Fortessa (BD Bioscience with DIVA software). Data analysis was performed using the FlowJo version 10 software (FlowJo LLC).

[3] = biological target: T3, human fibroblast activation protein (huFAP) (human, UniProt Q12884 1-760); assay: flow cytometry, NIH/3T3-huFAP clone 19 cells, PE anti-human Fc F(ab')2
T3 construct: expressed on transfected NIH/3T3-huFAP clone 19 cells; also called human FAP
Method: as §1, §2

T2 sequence (P97321 whole entry): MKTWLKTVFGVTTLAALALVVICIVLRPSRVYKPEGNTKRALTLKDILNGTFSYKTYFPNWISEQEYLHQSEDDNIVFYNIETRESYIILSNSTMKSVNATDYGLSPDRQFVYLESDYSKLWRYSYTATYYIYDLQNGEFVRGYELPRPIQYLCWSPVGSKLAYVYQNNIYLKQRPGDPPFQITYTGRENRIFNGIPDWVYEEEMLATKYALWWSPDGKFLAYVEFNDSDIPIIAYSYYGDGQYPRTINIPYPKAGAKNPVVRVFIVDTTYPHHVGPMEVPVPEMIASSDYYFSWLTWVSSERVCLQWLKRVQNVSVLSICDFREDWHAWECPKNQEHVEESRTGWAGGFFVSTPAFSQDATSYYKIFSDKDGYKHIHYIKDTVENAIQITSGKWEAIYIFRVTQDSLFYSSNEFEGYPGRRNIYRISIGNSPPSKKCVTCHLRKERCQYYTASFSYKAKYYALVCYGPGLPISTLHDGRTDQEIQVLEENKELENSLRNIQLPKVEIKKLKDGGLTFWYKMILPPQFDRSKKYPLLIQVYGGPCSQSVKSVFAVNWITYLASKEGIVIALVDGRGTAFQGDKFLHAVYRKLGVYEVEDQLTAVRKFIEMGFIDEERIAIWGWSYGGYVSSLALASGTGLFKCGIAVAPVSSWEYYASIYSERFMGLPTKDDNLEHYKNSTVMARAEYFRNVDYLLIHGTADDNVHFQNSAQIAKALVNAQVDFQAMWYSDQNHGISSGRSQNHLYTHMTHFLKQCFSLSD

B1: P1AD4520 or P1AD9139 mu CD40 (FGK4.5) × FAP (28H1) (4 + 1) (bispecific antibody, mouse IgG1, kappa)
heavy 1: EVQLVESDGGLVQPGRSLKLPCAASGFTFSDYYMAWVRQAPTKGLEWVASISYDGSSTYYRDSVKGRFTISRDNAKSTLYLQMDSLRSEDTATYYCGRHSSYFDYWGQGVMVTVSSAKTTPPSVYPLAPGSAAQTNSMVTLGCLVKGYFPEPVTVTWNSGSLSSGVHTFPAVLQSDLYTLSSSVTVPSSTWPSQTVTCNVAHPASSTKVDKKIVPRDCGGGGSGGGGSEVQLVESDGGLVQPGRSLKLPCAASGFTFSDYYMAWVRQAPTKGLEWVASISYDGSSTYYRDSVKGRFTISRDNAKSTLYLQMDSLRSEDTATYYCGRHSSYFDYWGQGVMVTVSSAKTTPPSVYPLAPGSAAQTNSMVTLGCLVKGYFPEPVTVTWNSGSLSSGVHTFPAVLQSDLYTLSSSVTVPSSTWPSQTVTCNVAHPASSTKVDKKIVPRDCGCKPCICTVPEVSSVFIFPPKPKDVLTITLTPKVTCVVVAISKDDPEVQFSWFVDDVEVHTAQTKPREEQINSTFRSVSELPIMHQDWLNGKEFKCRVNSAAFGAPIEKTISKTKGRPKAPQVYTIPPPKKQMAKDKVSLTCMITNFFPEDITVEWQWNGQPAENYKNTQPIMKTDGSYFVYSKLNVQKSNWEAGNTFTCSVLHEGLHNHHTEKSLSHSPGGGGGSGGGGSGGGGSGGGGSEVQLLESGGGLVQPGGSLRLSCAASGFTFSSHAMSWVRQAPGKGLEWVSAIWASGEQYYADSVKGRFTISRDNSKNTLYLQMNSLRAEDTAVYYCAKGWLGNFDYWGQGTLVTVSS
heavy 2: EVQLVESDGGLVQPGRSLKLPCAASGFTFSDYYMAWVRQAPTKGLEWVASISYDGSSTYYRDSVKGRFTISRDNAKSTLYLQMDSLRSEDTATYYCGRHSSYFDYWGQGVMVTVSSAKTTPPSVYPLAPGSAAQTNSMVTLGCLVKGYFPEPVTVTWNSGSLSSGVHTFPAVLQSDLYTLSSSVTVPSSTWPSQTVTCNVAHPASSTKVDKKIVPRDCGGGGSGGGGSEVQLVESDGGLVQPGRSLKLPCAASGFTFSDYYMAWVRQAPTKGLEWVASISYDGSSTYYRDSVKGRFTISRDNAKSTLYLQMDSLRSEDTATYYCGRHSSYFDYWGQGVMVTVSSAKTTPPSVYPLAPGSAAQTNSMVTLGCLVKGYFPEPVTVTWNSGSLSSGVHTFPAVLQSDLYTLSSSVTVPSSTWPSQTVTCNVAHPASSTKVDKKIVPRDCGCKPCICTVPEVSSVFIFPPKPKDVLTITLTPKVTCVVVAISKDDPEVQFSWFVDDVEVHTAQTKPREEQINSTFRSVSELPIMHQDWLNGKEFKCRVNSAAFGAPIEKTISKTKGRPKAPQVYTIPPPKEQMAKDKVSLTCMITNFFPEDITVEWQWNGQPAENYDNTQPIMDTDGSYFVYSDLNVQKSNWEAGNTFTCSVLHEGLHNHHTEKSLSHSPGGGGGSGGGGSGGGGSGGGGSEIVLTQSPGTLSLSPGERATLSCRASQSVSRSYLAWYQQKPGQAPRLLIIGASTRATGIPDRFSGSGSGTDFTLTISRLEPEDFAVYYCQQGQVIPPTFGQGTKVEIK
light: DTVLTQSPALAVSPGERVTISCRASDSVSTLMHWYQQKPGQQPKLLIYLASHLESGVPARFSGSGSGTDFTLTIDPVEADDTATYYCQQSWNDPWTFGGGTKLELKRADAAPTVSIFPPSSEQLTSGGASVVCFLNNFYPKDINVKWKIDGSERQNGVLNSWTDQDSKDSTYSMSSTLTLTKDEYERHNSYTCEATHKTSTSPIVKSFNRNEC
notes: murine surrogate, tetravalent for mouse CD40, monovalent for FAP (28H1); mouse IgG1 DAPG, DD/KK; also called 4 + 1 with C-terminal VH/VL fusion; muCD40-28H1
Kd [1]: 2.7 nM | koff [1]: 0.00155 s⁻¹ | kon [1]: 576000 M⁻¹ s⁻¹

B2: 4B9 IgG1 (antibody, V domains shown)
VH: EVQLLESGGGLVQPGGSLRLSCAASGFTFSSYAMSWVRQAPGKGLEWVSAIIGSGASTYYADSVKGRFTISRDNSKNTLYLQMNSLRAEDTAVYYCAKGWFGGFNYWGQGTLVTVSS
VL: EIVLTQSPGTLSLSPGERATLSCRASQSVTSSYLAWYQQKPGQAPRLLINVGSRRATGIPDRFSGSGSGTDFTLTISRLEPEDFAVYYCQQGIMLPPTFGQGTKVEIK
notes: IgG1; also called Control; FAP(4B9)
Kd [1]: 0.08 nM | koff [1]: 0.000172 s⁻¹ | kon [1]: 2.19e+06 M⁻¹ s⁻¹

B4: P1AA9663 CD40 × FAP (28H1) (2 + 2) (bispecific antibody, human IgG1, kappa, L234A L235A)
heavy: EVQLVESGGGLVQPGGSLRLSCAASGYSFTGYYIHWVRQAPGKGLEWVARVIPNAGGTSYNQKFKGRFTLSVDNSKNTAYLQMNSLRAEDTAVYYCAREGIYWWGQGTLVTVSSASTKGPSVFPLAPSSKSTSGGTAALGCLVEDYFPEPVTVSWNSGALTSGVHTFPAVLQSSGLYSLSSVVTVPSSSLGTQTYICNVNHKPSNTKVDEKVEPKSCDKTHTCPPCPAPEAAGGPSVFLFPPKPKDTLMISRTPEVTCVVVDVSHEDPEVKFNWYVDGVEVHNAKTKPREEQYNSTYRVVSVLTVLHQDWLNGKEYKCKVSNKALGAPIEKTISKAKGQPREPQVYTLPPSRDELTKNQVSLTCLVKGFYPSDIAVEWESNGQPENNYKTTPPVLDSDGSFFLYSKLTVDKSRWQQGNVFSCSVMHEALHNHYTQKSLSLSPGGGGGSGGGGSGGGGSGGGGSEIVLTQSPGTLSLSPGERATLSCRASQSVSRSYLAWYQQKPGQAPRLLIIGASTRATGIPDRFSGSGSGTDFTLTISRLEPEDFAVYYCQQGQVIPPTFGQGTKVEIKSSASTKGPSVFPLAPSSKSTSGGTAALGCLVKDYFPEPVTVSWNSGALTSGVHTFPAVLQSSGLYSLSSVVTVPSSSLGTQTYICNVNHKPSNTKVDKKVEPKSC
light 1: DIQMTQSPSSLSASVGDRVTITCRSSQSLVHSNGNTFLHWYQQKPGKAPKLLIYTVSNRFSGVPSRFSGSGSGTDFTLTISSLQPEDFATYFCSQTTHVPWTFGQGTKVEIKRTVAAPSVFIFPPSDRKLKSGTASVVCLLNNFYPREAKVQWKVDNALQSGNSQESVTEQDSKDSTYSLSSTLTLSKADYEKHKVYACEVTHQGLSSPVTKSFNRGEC
light 2: EVQLLESGGGLVQPGGSLRLSCAASGFTFSSHAMSWVRQAPGKGLEWVSAIWASGEQYYADSVKGRFTISRDNSKNTLYLQMNSLRAEDTAVYYCAKGWLGNFDYWGQGTLVTVSSASVAAPSVFIFPPSDEQLKSGTASVVCLLNNFYPREAKVQWKVDNALQSGNSQESVTEQDSKDSTYSLSSTLTLSKADYEKHKVYACEVTHQGLSSPVTKSFNRGEC
notes: bivalent for CD40 and for FAP; also called CD40 × FAP 2 + 2; huCD40-28H1
EC50 (read off the curve) [2]: ~4 nM | EC50 [3]: 3.65 nM

Other lines, results leading:

binding result [2]: binds | EC50 [3]: 33 nM
B3: P1AA9641 CD40 × FAP (28H1) (2 + 1) (bispecific antibody, human IgG1, kappa, L234A L235A)
heavy 1: EVQLVESGGGLVQPGGSLRLSCAASGYSFTGYYIHWVRQAPGKGLEWVARVIPNAGGTSYNQKFKGRFTLSVDNSKNTAYLQMNSLRAEDTAVYYCAREGIYWWGQGTLVTVSSASTKGPSVFPLAPSSKSTSGGTAALGCLVKDYFPEPVTVSWNSGALTSGVHTFPAVLQSSGLYSLSSVVTVPSSSLGTQTYICNVNHKPSNTKVDKKVEPKSCDKTHTCPPCPAPEAAGGPSVFLFPPKPKDTLMISRTPEVTCVVVDVSHEDPEVKFNWYVDGVEVHNAKTKPREEQYNSTYRVVSVLTVLHQDWLNGKEYKCKVSNKALGAPIEKTISKAKGQPREPQVCTLPPSRDELTKNQVSLSCAVKGFYPSDIAVEWESNGQPENNYKTTPPVLDSDGSFFLVSKLTVDKSRWQQGNVFSCSVMHEALHNHYTQKSLSLSPGGGGGSGGGGSGGGGSGGGGSEIVLTQSPGTLSLSPGERATLSCRASQSVSRSYLAWYQQKPGQAPRLLIIGASTRATGIPDRFSGSGSGTDFTLTISRLEPEDFAVYYCQQGQVIPPTFGQGTKVEIK
heavy 2: not shown
light: B4 light 1 with R128E, K129Q
notes: 28H1 VH and VL fused to the C-termini of the knob and hole heavy chains; also called CD40 × FAP 2 + 1; huCD40-28H1

binding result [2]: binds | EC50 [3]: 47.1 nM
B5: P1AD4453 CD40 × FAP (28H1) (4 + 1) (bispecific antibody, human IgG1, kappa, L234A L235A)
heavy 1: not shown
heavy 2: EVQLVESGGGLVQPGGSLRLSCAASGYSFTGYYIHWVRQAPGKGLEWVARVIPNAGGTSYNQKFKGRFTLSVDNSKNTAYLQMNSLRAEDTAVYYCAREGIYWWGQGTLVTVSSASTKGPSVFPLAPSSKSTSGGTAALGCLVKDYFPEPVTVSWNSGALTSGVHTFPAVLQSSGLYSLSSVVTVPSSSLGTQTYICNVNHKPSNTKVDKKVEPKSCDGGGGSGGGGSEVQLVESGGGLVQPGGSLRLSCAASGYSFTGYYIHWVRQAPGKGLEWVARVIPNAGGTSYNQKFKGRFTLSVDNSKNTAYLQMNSLRAEDTAVYYCAREGIYWWGQGTLVTVSSASTKGPSVFPLAPSSKSTSGGTAALGCLVKDYFPEPVTVSWNSGALTSGVHTFPAVLQSSGLYSLSSVVTVPSSSLGTQTYICNVNHKPSNTKVDKKVEPKSCDKTHTCPPCPAPEAAGGPSVFLFPPKPKDTLMISRTPEVTCVVVDVSHEDPEVKFNWYVDGVEVHNAKTKPREEQYNSTYRVVSVLTVLHQDWLNGKEYKCKVSNKALGAPIEKTISKAKGQPREPQVCTLPPSRDELTKNQVSLSCAVKGFYPSDIAVEWESNGQPENNYKTTPPVLDSDGSFFLVSKLTVDKSRWQQGNVFSCSVMHEALHNHYTQKSLSLSPGGGGGSGGGGSGGGGSGGGGSEIVLTQSPGTLSLSPGERATLSCRASQSVSRSYLAWYQQKPGQAPRLLIIGASTRATGIPDRFSGSGSGTDFTLTISRLEPEDFAVYYCQQGQVIPPTFGQGTKVEIK
light: B4 light 1 with R128E, K129Q
notes: 28H1 VH and VL fused to the C-termini of the knob and hole heavy chains; also called CD40 × FAP 4 + 1; huCD40-28H1
